Earlier results, collected in publication PMC3583350.

Target: FcεRIα ECD (Homo sapiens) (UniProt P12319)
Sequence of UniProt P12319 (P12319 26-205): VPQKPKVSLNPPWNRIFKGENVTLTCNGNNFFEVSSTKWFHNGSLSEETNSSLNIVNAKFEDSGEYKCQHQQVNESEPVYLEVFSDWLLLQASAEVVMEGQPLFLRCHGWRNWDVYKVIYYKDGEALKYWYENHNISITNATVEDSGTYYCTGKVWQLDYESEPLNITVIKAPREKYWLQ

Kd: 1 nM
Substance: IgE-Fc Fc (from UniProt P01854)
